The record followed here is paper PMC6624373.

What is called stoichiometry N is the number of molecules, sites or subunits per partner or assembly.

The target in the assay is lamin A R7/8E double mutant (human) (UniProt P02545). Kind of assay: rotary metal shadowing EM; in vitro assembly assay: after dialysis into 25 mM MES, 150 mM NaCl, 1 mM DTT, 1 mM EGTA pH 6.5, 30% glycerol; dimers scored as singular or incorporated into head-to-tail oligomers.

The substance “lamin A R7/8E double mutant (from UniProt P02545 1-646) (natural protein)” yielded a stoichiometry N of 2.
